Consider one molecule from patent US20150376238A1 (University of Washington, published 2015).

In experiment [1] the target is H3 hemagglutinin (A/Hong Kong/1/1968) (Influenza A virus A/Hong Kong/1/1968 …, UniProt Q91MA7 27-521). Put plainly: yeast surface display titration.
Experiment [2] addresses H1 hemagglutinin (A/South Carolina/1/1918) (Influenza A virus A/South …, UniProt Q9WFX3 18-520). Put plainly: yeast surface display titration.

H1 hemagglutinin (A/South Carolina/1/1918), sequence (Q9WFX3 18-520 limits assumed): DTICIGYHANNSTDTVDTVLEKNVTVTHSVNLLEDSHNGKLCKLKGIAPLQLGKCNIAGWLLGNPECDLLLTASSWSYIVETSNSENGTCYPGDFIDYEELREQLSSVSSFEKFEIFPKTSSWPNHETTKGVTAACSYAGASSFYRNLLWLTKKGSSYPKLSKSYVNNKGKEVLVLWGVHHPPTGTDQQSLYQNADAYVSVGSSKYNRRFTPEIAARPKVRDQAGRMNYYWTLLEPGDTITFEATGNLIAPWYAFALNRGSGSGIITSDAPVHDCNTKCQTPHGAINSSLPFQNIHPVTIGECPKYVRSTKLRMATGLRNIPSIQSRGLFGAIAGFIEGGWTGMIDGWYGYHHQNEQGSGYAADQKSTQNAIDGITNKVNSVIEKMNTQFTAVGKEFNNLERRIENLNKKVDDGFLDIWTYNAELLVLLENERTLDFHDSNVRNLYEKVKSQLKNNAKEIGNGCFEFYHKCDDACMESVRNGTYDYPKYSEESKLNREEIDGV
H3 hemagglutinin (A/Hong Kong/1/1968), sequence (Q91MA7 27-521 limits assumed): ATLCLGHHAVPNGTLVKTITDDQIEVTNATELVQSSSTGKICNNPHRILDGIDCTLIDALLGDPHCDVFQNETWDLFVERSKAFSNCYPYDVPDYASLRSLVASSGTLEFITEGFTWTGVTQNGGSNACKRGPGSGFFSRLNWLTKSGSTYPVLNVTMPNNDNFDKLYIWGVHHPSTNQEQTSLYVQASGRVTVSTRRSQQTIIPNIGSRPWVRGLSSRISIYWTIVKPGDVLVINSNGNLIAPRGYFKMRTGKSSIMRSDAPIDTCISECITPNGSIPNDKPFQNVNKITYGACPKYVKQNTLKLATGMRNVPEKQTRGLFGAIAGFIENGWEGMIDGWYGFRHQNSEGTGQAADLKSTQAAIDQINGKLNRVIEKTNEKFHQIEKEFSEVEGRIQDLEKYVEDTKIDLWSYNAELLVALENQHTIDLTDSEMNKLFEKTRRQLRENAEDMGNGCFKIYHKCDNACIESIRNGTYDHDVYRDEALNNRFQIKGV

B1: 52alt1-3 (designed binder)
chain: GIVNVPNPNTTKYQQLARSAIAIYNNHQNAHLEFVENLNVKEQVSYGAMYYITLAATDDAGKKKIYKAKVGVVESAGWVGVEEFKLV
Turning to B1, binding in experiment [1] was put at a Kd of 3 nM. Also, the binding result in experiment [2] is on record as “no binding”.
